From patent US12679878B2, “CRF2 receptor agonists and their use in therapy” (SANOFI, priority 2020, dated 2026) come the findings set out here.

For the test, the target named is human corticotropin-releasing factor 2α (CRF2 α receptor) (human), Q13324. Put plainly: cell-based or functional assay.

Starred links: 1 amine or outer side, 2 acyl side, 3 side chain; linkers in the order of their positions; H or OH if unused. Non-standard residues stand in square brackets, D forms with d. Groups on a side chain read outwards from the residue. No end group written: not given here. *: point of attachment. C18 diacid = O=C(O)CCCCCCCCCCCCCCCCC(=O)*; γGlu = O=C(O)[C@H](CCC(=O)[*:2])N[*:1]; Palmitoyl = CCCCCCCCCCCCCCCC(=O)*; AEEA = NCCOCCOCC(=O)O; Aib = CC(C)(N)C(=O)O

Sequence of human corticotropin-releasing factor 2α (CRF2 α receptor) (human), Q13324 (Q13324 20-411): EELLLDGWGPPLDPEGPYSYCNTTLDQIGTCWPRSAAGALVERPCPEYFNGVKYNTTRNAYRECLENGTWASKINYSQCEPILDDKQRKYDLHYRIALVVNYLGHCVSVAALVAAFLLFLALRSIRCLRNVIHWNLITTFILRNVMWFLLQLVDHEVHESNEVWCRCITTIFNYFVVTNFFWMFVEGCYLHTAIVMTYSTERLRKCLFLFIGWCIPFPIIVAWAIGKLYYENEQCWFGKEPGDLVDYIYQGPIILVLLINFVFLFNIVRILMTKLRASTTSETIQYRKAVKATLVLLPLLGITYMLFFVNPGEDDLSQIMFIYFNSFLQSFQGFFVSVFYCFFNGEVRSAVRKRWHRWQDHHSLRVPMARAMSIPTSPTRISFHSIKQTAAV

B1: SEQ ID NO: 124 (peptide)
peptide: IVLSLDVPIKLK([AEEA-AEEA-γGlu-C18 diacid])QILLKQARQK[Aib]QRAQAEKNKRILERV-NH2
modifications: N-terminus assumed
SMILES: CC[C@H](C)[C@H](N)C(=O)N[C@H](C(=O)N[C@@H](CC(C)C)C(=O)N[C@@H](CO)C(=O)N[C@@H](CC(C)C)C(=O)N[C@@H](CC(=O)O)C(=O)N[C@H](C(=O)N1CCC[C@H]1C(=O)N[C@H](C(=O)N[C@@H](CCCCN)C(=O)N[C@@H](CC(C)C)C(=O)N[C@@H](CCCCNC(=O)COCCOCCNC(=O)COCCOCCNC(=O)CC[C@H](NC(=O)CCCCCCCCCCCCCCCCC(=O)O)C(=O)O)C(=O)N[C@@H](CCC(N)=O)C(=O)N[C@H](C(=O)N[C@@H](CC(C)C)C(=O)N[C@@H](CC(C)C)C(=O)N[C@@H](CCCCN)C(=O)N[C@@H](CCC(N)=O)C(=O)N[C@@H](C)C(=O)N[C@@H](CCCNC(=N)N)C(=O)N[C@@H](CCC(N)=O)C(=O)N[C@@H](CCCCN)C(=O)NC(C)(C)C(=O)N[C@@H](CCC(N)=O)C(=O)N[C@@H](CCCNC(=N)N)C(=O)N[C@@H](C)C(=O)N[C@@H](CCC(N)=O)C(=O)N[C@@H](C)C(=O)N[C@@H](CCC(=O)O)C(=O)N[C@@H](CCCCN)C(=O)N[C@@H](CC(N)=O)C(=O)N[C@@H](CCCCN)C(=O)N[C@@H](CCCNC(=N)N)C(=O)N[C@H](C(=O)N[C@@H](CC(C)C)C(=O)N[C@@H](CCC(=O)O)C(=O)N[C@@H](CCCNC(=N)N)C(=O)N[C@H](C(N)=O)C(C)C)[C@@H](C)CC)[C@@H](C)CC)[C@@H](C)CC)C(C)C)C(C)C
B1 yielded an EC50 [nM], 0% HSA of 0.11 nM and an EC50 [nM], 0.1% HSA of 4.37 nM.

B2: SEQ ID NO: 123 (peptide)
peptide: IVLSLDVPIKLK([AEEA-AEEA-γGlu-C18 diacid])QILLEQARQK[Aib]QRAQAEKNKRILERV-NH2
modifications: N-terminus assumed
SMILES: CC[C@H](C)[C@H](N)C(=O)N[C@H](C(=O)N[C@@H](CC(C)C)C(=O)N[C@@H](CO)C(=O)N[C@@H](CC(C)C)C(=O)N[C@@H](CC(=O)O)C(=O)N[C@H](C(=O)N1CCC[C@H]1C(=O)N[C@H](C(=O)N[C@@H](CCCCN)C(=O)N[C@@H](CC(C)C)C(=O)N[C@@H](CCCCNC(=O)COCCOCCNC(=O)COCCOCCNC(=O)CC[C@H](NC(=O)CCCCCCCCCCCCCCCCC(=O)O)C(=O)O)C(=O)N[C@@H](CCC(N)=O)C(=O)N[C@H](C(=O)N[C@@H](CC(C)C)C(=O)N[C@@H](CC(C)C)C(=O)N[C@@H](CCC(=O)O)C(=O)N[C@@H](CCC(N)=O)C(=O)N[C@@H](C)C(=O)N[C@@H](CCCNC(=N)N)C(=O)N[C@@H](CCC(N)=O)C(=O)N[C@@H](CCCCN)C(=O)NC(C)(C)C(=O)N[C@@H](CCC(N)=O)C(=O)N[C@@H](CCCNC(=N)N)C(=O)N[C@@H](C)C(=O)N[C@@H](CCC(N)=O)C(=O)N[C@@H](C)C(=O)N[C@@H](CCC(=O)O)C(=O)N[C@@H](CCCCN)C(=O)N[C@@H](CC(N)=O)C(=O)N[C@@H](CCCCN)C(=O)N[C@@H](CCCNC(=N)N)C(=O)N[C@H](C(=O)N[C@@H](CC(C)C)C(=O)N[C@@H](CCC(=O)O)C(=O)N[C@@H](CCCNC(=N)N)C(=O)N[C@H](C(N)=O)C(C)C)[C@@H](C)CC)[C@@H](C)CC)[C@@H](C)CC)C(C)C)C(C)C
As to B2, the EC50 [nM], 0% HSA came to 0.33 nM and the EC50 [nM], 0.1% HSA was found to be 9.74 nM.

B3: SEQ ID NO: 122 (peptide)
peptide: IVLSLDVPIKLK([AEEA-AEEA-γGlu-C18 diacid])QILLKQERQKKQRQQAEKNKQILAQV-NH2
modifications: N-terminus assumed
SMILES: CC[C@H](C)[C@H](N)C(=O)N[C@H](C(=O)N[C@@H](CC(C)C)C(=O)N[C@@H](CO)C(=O)N[C@@H](CC(C)C)C(=O)N[C@@H](CC(=O)O)C(=O)N[C@H](C(=O)N1CCC[C@H]1C(=O)N[C@H](C(=O)N[C@@H](CCCCN)C(=O)N[C@@H](CC(C)C)C(=O)N[C@@H](CCCCNC(=O)COCCOCCNC(=O)COCCOCCNC(=O)CC[C@H](NC(=O)CCCCCCCCCCCCCCCCC(=O)O)C(=O)O)C(=O)N[C@@H](CCC(N)=O)C(=O)N[C@H](C(=O)N[C@@H](CC(C)C)C(=O)N[C@@H](CC(C)C)C(=O)N[C@@H](CCCCN)C(=O)N[C@@H](CCC(N)=O)C(=O)N[C@@H](CCC(=O)O)C(=O)N[C@@H](CCCNC(=N)N)C(=O)N[C@@H](CCC(N)=O)C(=O)N[C@@H](CCCCN)C(=O)N[C@@H](CCCCN)C(=O)N[C@@H](CCC(N)=O)C(=O)N[C@@H](CCCNC(=N)N)C(=O)N[C@@H](CCC(N)=O)C(=O)N[C@@H](CCC(N)=O)C(=O)N[C@@H](C)C(=O)N[C@@H](CCC(=O)O)C(=O)N[C@@H](CCCCN)C(=O)N[C@@H](CC(N)=O)C(=O)N[C@@H](CCCCN)C(=O)N[C@@H](CCC(N)=O)C(=O)N[C@H](C(=O)N[C@@H](CC(C)C)C(=O)N[C@@H](C)C(=O)N[C@@H](CCC(N)=O)C(=O)N[C@H](C(N)=O)C(C)C)[C@@H](C)CC)[C@@H](C)CC)[C@@H](C)CC)C(C)C)C(C)C
With B3, the EC50 [nM], 0% HSA was 0.04 nM and the EC50 [nM], 0.1% HSA is 1.71 nM.

B4: SEQ ID NO: 125 (peptide)
peptide: IVLSLDVPIKLK([AEEA-AEEA-γGlu-C18 diacid])QILLEQARQK[Aib]QREQAEKNKRILERV-NH2
modifications: N-terminus assumed
SMILES: CC[C@H](C)[C@H](N)C(=O)N[C@H](C(=O)N[C@@H](CC(C)C)C(=O)N[C@@H](CO)C(=O)N[C@@H](CC(C)C)C(=O)N[C@@H](CC(=O)O)C(=O)N[C@H](C(=O)N1CCC[C@H]1C(=O)N[C@H](C(=O)N[C@@H](CCCCN)C(=O)N[C@@H](CC(C)C)C(=O)N[C@@H](CCCCNC(=O)COCCOCCNC(=O)COCCOCCNC(=O)CC[C@H](NC(=O)CCCCCCCCCCCCCCCCC(=O)O)C(=O)O)C(=O)N[C@@H](CCC(N)=O)C(=O)N[C@H](C(=O)N[C@@H](CC(C)C)C(=O)N[C@@H](CC(C)C)C(=O)N[C@@H](CCC(=O)O)C(=O)N[C@@H](CCC(N)=O)C(=O)N[C@@H](C)C(=O)N[C@@H](CCCNC(=N)N)C(=O)N[C@@H](CCC(N)=O)C(=O)N[C@@H](CCCCN)C(=O)NC(C)(C)C(=O)N[C@@H](CCC(N)=O)C(=O)N[C@@H](CCCNC(=N)N)C(=O)N[C@@H](CCC(=O)O)C(=O)N[C@@H](CCC(N)=O)C(=O)N[C@@H](C)C(=O)N[C@@H](CCC(=O)O)C(=O)N[C@@H](CCCCN)C(=O)N[C@@H](CC(N)=O)C(=O)N[C@@H](CCCCN)C(=O)N[C@@H](CCCNC(=N)N)C(=O)N[C@H](C(=O)N[C@@H](CC(C)C)C(=O)N[C@@H](CCC(=O)O)C(=O)N[C@@H](CCCNC(=N)N)C(=O)N[C@H](C(N)=O)C(C)C)[C@@H](C)CC)[C@@H](C)CC)[C@@H](C)CC)C(C)C)C(C)C
Take B4: the EC50 [nM], 0% HSA was determined as 0.47 nM and the EC50 [nM], 0.1% HSA amounted to 19.9 nM.

B5: SEQ ID NO: 12 (peptide)
peptide: FTLSLDVPTKIK([γGlu-Palmitoyl])QKLLKQEKQRKQKQQAKTNAKILARV-NH2
modifications: N-terminus assumed
SMILES: CCCCCCCCCCCCCCCC(=O)N[C@@H](CCC(=O)NCCCC[C@H](NC(=O)[C@@H](NC(=O)[C@H](CCCCN)NC(=O)[C@@H](NC(=O)[C@@H]1CCCN1C(=O)[C@@H](NC(=O)[C@H](CC(=O)O)NC(=O)[C@H](CC(C)C)NC(=O)[C@H](CO)NC(=O)[C@H](CC(C)C)NC(=O)[C@@H](NC(=O)[C@@H](N)Cc1ccccc1)[C@@H](C)O)C(C)C)[C@@H](C)O)[C@@H](C)CC)C(=O)N[C@@H](CCC(N)=O)C(=O)N[C@@H](CCCCN)C(=O)N[C@@H](CC(C)C)C(=O)N[C@@H](CC(C)C)C(=O)N[C@@H](CCCCN)C(=O)N[C@@H](CCC(N)=O)C(=O)N[C@@H](CCC(=O)O)C(=O)N[C@@H](CCCCN)C(=O)N[C@@H](CCC(N)=O)C(=O)N[C@@H](CCCNC(=N)N)C(=O)N[C@@H](CCCCN)C(=O)N[C@@H](CCC(N)=O)C(=O)N[C@@H](CCCCN)C(=O)N[C@@H](CCC(N)=O)C(=O)N[C@@H](CCC(N)=O)C(=O)N[C@@H](C)C(=O)N[C@@H](CCCCN)C(=O)N[C@H](C(=O)N[C@@H](CC(N)=O)C(=O)N[C@@H](C)C(=O)N[C@@H](CCCCN)C(=O)N[C@H](C(=O)N[C@@H](CC(C)C)C(=O)N[C@@H](C)C(=O)N[C@@H](CCCNC(=N)N)C(=O)N[C@H](C(N)=O)C(C)C)[C@@H](C)CC)[C@@H](C)O)C(=O)O
In turn, B5 displayed an EC50 [nM], 0% HSA of 0.09 nM.

B6: SEQ ID NO: 121 (peptide)
peptide: IVLSLDVPIKLK([AEEA-AEEA-γGlu-C18 diacid])QILLKQERQKKQREKAEKNKQILAQV-NH2
modifications: N-terminus assumed
SMILES: CC[C@H](C)[C@H](N)C(=O)N[C@H](C(=O)N[C@@H](CC(C)C)C(=O)N[C@@H](CO)C(=O)N[C@@H](CC(C)C)C(=O)N[C@@H](CC(=O)O)C(=O)N[C@H](C(=O)N1CCC[C@H]1C(=O)N[C@H](C(=O)N[C@@H](CCCCN)C(=O)N[C@@H](CC(C)C)C(=O)N[C@@H](CCCCNC(=O)COCCOCCNC(=O)COCCOCCNC(=O)CC[C@H](NC(=O)CCCCCCCCCCCCCCCCC(=O)O)C(=O)O)C(=O)N[C@@H](CCC(N)=O)C(=O)N[C@H](C(=O)N[C@@H](CC(C)C)C(=O)N[C@@H](CC(C)C)C(=O)N[C@@H](CCCCN)C(=O)N[C@@H](CCC(N)=O)C(=O)N[C@@H](CCC(=O)O)C(=O)N[C@@H](CCCNC(=N)N)C(=O)N[C@@H](CCC(N)=O)C(=O)N[C@@H](CCCCN)C(=O)N[C@@H](CCCCN)C(=O)N[C@@H](CCC(N)=O)C(=O)N[C@@H](CCCNC(=N)N)C(=O)N[C@@H](CCC(=O)O)C(=O)N[C@@H](CCCCN)C(=O)N[C@@H](C)C(=O)N[C@@H](CCC(=O)O)C(=O)N[C@@H](CCCCN)C(=O)N[C@@H](CC(N)=O)C(=O)N[C@@H](CCCCN)C(=O)N[C@@H](CCC(N)=O)C(=O)N[C@H](C(=O)N[C@@H](CC(C)C)C(=O)N[C@@H](C)C(=O)N[C@@H](CCC(N)=O)C(=O)N[C@H](C(N)=O)C(C)C)[C@@H](C)CC)[C@@H](C)CC)[C@@H](C)CC)C(C)C)C(C)C
Take B6: the EC50 [nM], 0% HSA turned out to be 0.73 nM and the EC50 [nM], 0.1% HSA is 41.3 nM.
